{"source": "patent US20190352356A1", "binders": {"B1": {"name": "exemplary mutant-hIAPP polypeptide mutant analog 1 (N22K, G24P, I26P, N31K) (peptide)", "peptide": "KCNTATCATQRLANFLVHSSNKFPAPLSSTKVGSNTY", "HELM": "PEPTIDE1{K.C.N.T.A.T.C.A.T.Q.R.L.A.N.F.L.V.H.S.S.N.K.F.P.A.P.L.S.S.T.K.V.G.S.N.T.Y.[am]}$PEPTIDE1,PEPTIDE1,2:R3-7:R3$$$V2.0; N-terminus assumed", "SMILES": "CC(C)C[C@H](NC(=O)[C@H](CCCNC(=N)N)NC(=O)[C@H](CCC(N)=O)NC(=O)[C@@H](NC(=O)[C@H](C)NC(=O)[C@@H]1CSSC[C@H](NC(=O)[C@@H](N)CCCCN)C(=O)N[C@@H](CC(N)=O)C(=O)N[C@@H]([C@@H](C)O)C(=O)N[C@@H](C)C(=O)N[C@@H]([C@@H](C)O)C(=O)N1)[C@@H](C)O)C(=O)N[C@@H](C)C(=O)N[C@@H](CC(N)=O)C(=O)N[C@@H](Cc1ccccc1)C(=O)N[C@@H](CC(C)C)C(=O)N[C@H](C(=O)N[C@@H](Cc1c[nH]cn1)C(=O)N[C@@H](CO)C(=O)N[C@@H](CO)C(=O)N[C@@H](CC(N)=O)C(=O)N[C@@H](CCCCN)C(=O)N[C@@H](Cc1ccccc1)C(=O)N1CCC[C@H]1C(=O)N[C@@H](C)C(=O)N1CCC[C@H]1C(=O)N[C@@H](CC(C)C)C(=O)N[C@@H](CO)C(=O)N[C@@H](CO)C(=O)N[C@H](C(=O)N[C@@H](CCCCN)C(=O)N[C@H](C(=O)NCC(=O)N[C@@H](CO)C(=O)N[C@@H](CC(N)=O)C(=O)N[C@H](C(=O)N[C@@H](Cc1ccc(O)cc1)C(N)=O)[C@@H](C)O)C(C)C)[C@@H](C)O)C(C)C"}, "B2": {"name": "exemplary mutant-hIAPP polypeptide mutant analog 4 (N22K, S28P, N31K as SEQ ID NO: 22 is printed) (peptide)", "peptide": "KCNTATCATQRLANFLVHSSNKFGAILPSTKVGSNTY-NH2", "modifications": "disulfide 2-7; not fully specified; printed as KCNTATCATQRLANFLVHSSNKFGAILPSTKVGSNTY-NH2"}, "B3": {"name": "exemplary mutant-hIAPP polypeptide mutant analog 3 (N21K, N35K) (peptide)", "peptide": "KCNTATCATQRLANFLVHSSKNFGAILSSTNVGSKTY", "HELM": "PEPTIDE1{K.C.N.T.A.T.C.A.T.Q.R.L.A.N.F.L.V.H.S.S.K.N.F.G.A.I.L.S.S.T.N.V.G.S.K.T.Y.[am]}$PEPTIDE1,PEPTIDE1,2:R3-7:R3$$$V2.0; N-terminus assumed", "SMILES": "CC[C@H](C)[C@H](NC(=O)[C@H](C)NC(=O)CNC(=O)[C@H](Cc1ccccc1)NC(=O)[C@H](CC(N)=O)NC(=O)[C@H](CCCCN)NC(=O)[C@H](CO)NC(=O)[C@H](CO)NC(=O)[C@H](Cc1c[nH]cn1)NC(=O)[C@@H](NC(=O)[C@H](CC(C)C)NC(=O)[C@H](Cc1ccccc1)NC(=O)[C@H](CC(N)=O)NC(=O)[C@H](C)NC(=O)[C@H](CC(C)C)NC(=O)[C@H](CCCNC(=N)N)NC(=O)[C@H](CCC(N)=O)NC(=O)[C@@H](NC(=O)[C@H](C)NC(=O)[C@@H]1CSSC[C@H](NC(=O)[C@@H](N)CCCCN)C(=O)N[C@@H](CC(N)=O)C(=O)N[C@@H]([C@@H](C)O)C(=O)N[C@@H](C)C(=O)N[C@@H]([C@@H](C)O)C(=O)N1)[C@@H](C)O)C(C)C)C(=O)N[C@@H](CC(C)C)C(=O)N[C@@H](CO)C(=O)N[C@@H](CO)C(=O)N[C@H](C(=O)N[C@@H](CC(N)=O)C(=O)N[C@H](C(=O)NCC(=O)N[C@@H](CO)C(=O)N[C@@H](CCCCN)C(=O)N[C@H](C(=O)N[C@@H](Cc1ccc(O)cc1)C(N)=O)[C@@H](C)O)C(C)C)[C@@H](C)O"}, "B4": {"name": "exemplary mutant-hIAPP polypeptide mutant analog 2 (N21K, G24P, I26P, N35K) (peptide)", "peptide": "B3 peptide with G24P, I26P", "HELM": "PEPTIDE1{K.C.N.T.A.T.C.A.T.Q.R.L.A.N.F.L.V.H.S.S.K.N.F.P.A.P.L.S.S.T.N.V.G.S.K.T.Y.[am]}$PEPTIDE1,PEPTIDE1,2:R3-7:R3$$$V2.0; N-terminus assumed", "SMILES": "CC(C)C[C@H](NC(=O)[C@H](CCCNC(=N)N)NC(=O)[C@H](CCC(N)=O)NC(=O)[C@@H](NC(=O)[C@H](C)NC(=O)[C@@H]1CSSC[C@H](NC(=O)[C@@H](N)CCCCN)C(=O)N[C@@H](CC(N)=O)C(=O)N[C@@H]([C@@H](C)O)C(=O)N[C@@H](C)C(=O)N[C@@H]([C@@H](C)O)C(=O)N1)[C@@H](C)O)C(=O)N[C@@H](C)C(=O)N[C@@H](CC(N)=O)C(=O)N[C@@H](Cc1ccccc1)C(=O)N[C@@H](CC(C)C)C(=O)N[C@H](C(=O)N[C@@H](Cc1c[nH]cn1)C(=O)N[C@@H](CO)C(=O)N[C@@H](CO)C(=O)N[C@@H](CCCCN)C(=O)N[C@@H](CC(N)=O)C(=O)N[C@@H](Cc1ccccc1)C(=O)N1CCC[C@H]1C(=O)N[C@@H](C)C(=O)N1CCC[C@H]1C(=O)N[C@@H](CC(C)C)C(=O)N[C@@H](CO)C(=O)N[C@@H](CO)C(=O)N[C@H](C(=O)N[C@@H](CC(N)=O)C(=O)N[C@H](C(=O)NCC(=O)N[C@@H](CO)C(=O)N[C@@H](CCCCN)C(=O)N[C@H](C(=O)N[C@@H](Cc1ccc(O)cc1)C(N)=O)[C@@H](C)O)C(C)C)[C@@H](C)O)C(C)C"}}, "note": "Positions count from the first letter of the chain named. Names may count otherwise. Bridges are numbered along the chain shown (N, C = ends). Where no end group is shown, it is not given here."}
{"biological_target": "human amylin receptor (hAMY1(a)) (human) (UniProt P30988)", "sequence (P30988 25-474, chain 1 of 2)": "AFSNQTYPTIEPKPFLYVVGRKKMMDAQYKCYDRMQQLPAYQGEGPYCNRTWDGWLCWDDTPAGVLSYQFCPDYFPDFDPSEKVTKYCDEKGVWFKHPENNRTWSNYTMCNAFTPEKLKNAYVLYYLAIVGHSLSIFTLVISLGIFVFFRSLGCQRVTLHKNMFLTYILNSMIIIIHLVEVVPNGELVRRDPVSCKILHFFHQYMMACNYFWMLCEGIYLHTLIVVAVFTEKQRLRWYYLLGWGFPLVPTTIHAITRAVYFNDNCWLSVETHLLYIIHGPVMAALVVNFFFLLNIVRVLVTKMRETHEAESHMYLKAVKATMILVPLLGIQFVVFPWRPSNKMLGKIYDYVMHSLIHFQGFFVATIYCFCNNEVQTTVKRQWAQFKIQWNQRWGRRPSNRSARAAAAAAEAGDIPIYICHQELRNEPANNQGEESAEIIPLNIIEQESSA", "sequence (O60894 27-148, chain 2 of 2, further chain)": "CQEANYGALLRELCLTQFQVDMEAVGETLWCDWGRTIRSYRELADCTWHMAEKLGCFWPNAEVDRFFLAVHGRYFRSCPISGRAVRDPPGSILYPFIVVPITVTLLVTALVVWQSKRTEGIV", "assay": "cell-based or functional assay"}
{"binder": "B1", "pEC50 of cAMP production (pEC50 (-log10(EC50)))": 8.47}
{"binder": "B2", "pEC50 of cAMP production (pEC50 (-log10(EC50)))": 9.43}
{"binder": "B3", "pEC50 of cAMP production (pEC50 (-log10(EC50)))": 9.13}
{"binder": "B4", "pEC50 of cAMP production (pEC50 (-log10(EC50)))": 8.75}
{"biological_target": "human calcitonin receptor (hCT(a)) (human) (UniProt P30988)", "sequence (P30988 25-474)": "as the sequence (P30988 25-474, chain 1 of 2) above", "assay": "cell-based or functional assay"}
{"binder": "B1", "pEC50 of cAMP production (pEC50 (-log10(EC50)))": 8.3}
{"binder": "B2", "pEC50 of cAMP production (pEC50 (-log10(EC50)))": 8.55}
{"binder": "B3", "pEC50 of cAMP production (pEC50 (-log10(EC50)))": 8.62}
{"binder": "B4", "pEC50 of cAMP production (pEC50 (-log10(EC50)))": 7.97}
